These results are taken from the DeepSol protein solubility set.

The data set can be described thus: soluble on expression in E. coli; label from the status in PepcDB or PDB records.
As for “MSLGQSAQLRSWLQAMPKGGDLHNHLSGSVYAEDYLQWASEDGACVQLDDLSLRAPPCVAGQVPARGLSTRDVALYGRVVDALSMRNHLASPSQPTGHGQFFSTFGKFDAVVRARVADTVAAVLEQAARDRVPYVEIIANPPQMDDAAQRMQALPWHGTDDAANLRELQDALPPLVQAAQRNLADLDAQVRHVLQCDQAQPRAACQVQYRYVPYVLRVLPAPQVFGQMALAHALVAAGGSRAVAVNIVAPEDNPVAVADYARHMAMFRFFAQRYPGVPLSLHAGELTLGLVPPAQLRSHIRQAVDAGARRIGHGVDLPYEDDAQELLQRMRRDQVAVEINLTSNDVILGVTGAAHPLAMYLRAGVPVVLSTDDAGVSRADMTHEYQRAVQEQGIEYPTLKQLARNGLTYSFLPGASLWSANGKAAQACATALQRETDDAGCQAFRQSSEKARLQWQLETDLAQYERMLMEQRKVQTEGHHHHHH”, the “soluble on expression in E. coli” value is on record as “not soluble”.
Turning to “HVEQSNKDELLLEEITSWLEKNTDGKIVVFCGDKTVADNVYKFIEQNLPSVERHIDGKLPGFNISPQYNVLICDQSGEDGLNLQGKCRLAIHYSLPRTVMRIEQRIGRLNRYSASSIGVLPV”, the “soluble on expression in E. coli” value is reported as “not soluble”.
Take “MDSRIAIYVLVSASLLYLVNCHKLVHYFNLKINGSDITNTADILLDNYPIMTFDGKDIYPSIAFMVGNKLFLDLYKNIFVEFFRLFRVSVSSQYEELEYYYSCDYTNNRPTIKQHYFYNGEEYTEIDRSKKATNKNSWLITSGFRLQKWFDSEDCIIYLRSLVRRMEDSNKNSKKT”: the “soluble on expression in E. coli” value is given as “not soluble”.
As to “MSLKITAADVVVTSPGRNFVTLRITTEDGLTGLGDATLNGRELAVEAYLREHVAPLLLGRDAHAVEDTWQYLYRGAYWRRGPVTMAAVAAVDMALWDIKGKAAGMPVYQLLGGACRTGALAYGHASGRDIPELLDSVREHLADGFRAVRIQSGIPGLDSVYGVAASAAGDGDRYDYEPARRTGAAHPRPTEETWDTRAYLRHMPTVFEAVRHTFGPELPLLHDGHHRMTPIQAARLGKDLEPYDLFWLEDATPGEDQGALRLIREHTTTPLAIGEVFNSVHDYTTLLQERLIDYVRSAVTHTGGITAVRKLLDMAAVYGIKSGMHGPTDISPVGMAAALHLDLAVHNFGIQEYMRHAPDTLEVFRTSYRFEDGLLHPGEAPGLGVELDDGAAARFPYEPAYLPVNRLSDGTVHDWEGHHHHHH”, the “soluble on expression in E. coli” value is listed as “not soluble”.
For “MSSTKSIPADVIAKLQKFDELITKLEDAVEEVDVGVEKHFERSAHEMALVDTMSMFLMDSLMWAVQATKGGGADKNDDLLIDLARTKRMTADMKEINLRQDAPRINKQAAANFVRNALWEQPEQGESSKKAAK”, the “soluble on expression in E. coli” value is reported as “not soluble”.
On to “MSLKVFVTGATGFIGASIARELLKDGCHVRVLARPGSDRRNLDGLDVEVCEGDLCSPESLDRGVKGCEVLYHAAADYRLWTRNPAAMYAANVEGTRHVLDAALRHGVSRVVYTSSVGTLGNPGDGTPGTEATPVTFADMVGDYKKSKFLAEREAETFLARGLPLVIVNPSTPVGPHDVKPTPTGKIIVDFLNRAMPAYLDTGLNIIDVEDCAQGHILAAQHGRIGEKYILGHENLTLRQIFSLLETVTGLAAPKVRLPYLPILAAAYANEALSRITGREPLIPLAGVQMARKFMYFDSSKAVKELGLPQRPAVEALGRAVEWFRANGYVREGHHHHHH”, for which the “soluble on expression in E. coli” value is “soluble”.
Consider “MTQTAAPARYSPAELACALGLFPPTAEQAAVIAAPPGPLVVIAGAGAGKTETMAARVVWLVANGYAEPGQVLGLTFTRKAAGQLLRRVRSRLARLAGIGLGCGDPAACAPVVSTYHAFAGSLLRDYGLLLPLEPDTRLLSETELWQLAFDVVSGYDGVLCTDKSPAAVTSIVVRLWGQLGEHLVDTRALRDTHVELERLVHALPAGRYQRDRGPSQWLLRMLATQTQRAELVPLLDALGERMHAGKVMDFAMQMASAARLAATSPQVGQDLRRRYRVVLLDEYQDTGHAQRVVLSSLFGGGVDDGLALTAVGDPIQSIYGWRGASATNLPRFTTDFPLSDGTPAPVLELLTSWRNPPQALRVANGISAEARRRSVAVRALRPRPDAPPGAVRCALLPDVQAEREWIADHLRMRYQRAEADGVKPPTAAVLVRRNADAAAIADTLRARGIPAEVVGLAGLLSIPEVAEVVAMLRLVADPTAGAAAMRVLTGPRWRLGARDLAALWRRALTLSGESPSTASPESIAMAASADADNPCLADAISDPGSAEGYSVAGYGRIGALAGELSALRGRLGHSLPDLVAEVRRVLGVDCEVRASAPVSGGWAGPEHLDAFADVVAGYAERASARSSEASVAGLLAYLDVAEVVENGLPPAELTVACDRVQVLTVHAAKGLEWQVVAVAHLSRGVFPSTVSRSSWLTDPAELPPLLRGDRASAGAHGIPVLDTSAVADRKQLSDKISEHRRLLDRRRVDEERRLLYVAVTRAEDTLLVSGHHWGPTGTKPRGPSEFLCELKDIIDRSAAAGDPCGVVEQWASAPAGDERNPLCDNAIEAVWPADPLAARRGDVERGAALVAAAMSADLPGSTTDIDHPPRPGDAPWSTDVDALLAERAHAARGAPARGLPNHLSVSSLVELVGDPVGARQRLMCRLPKRPDPHAWLGDAFHAWVQQFYGAELLFDLGDLPGAADREVGDPEELAALQRAFTASSWAARTPAAVEVPFEMPIGDTVVRGRIDAVFVDPDGGATVVDWKTGKPPHGPAAMRQAAVQLAVYRLAWAALRGCPTSSVRTAFYYVRSGITVVPDELPAPGELAMLLTDCAGRRSDT”, for which the “soluble on expression in E. coli” value is given as “not soluble”.
“MSLYSDSVTHCLQTCNSPYQKSEKDHRRLSLFAARLFLYNLALFNQFDISMTQSIWRSVTPQFEQFNKVFENYPNLAPISLIEIQPRLTSALEQFVHLKGFSRILLINAPDNSIYRSLFKDALLEQDLDVPVVSTETLDISEILGQVKVEHGGLVHKTSGYLEQANGGYLIVSANLLLANPRYWPTVKAAVLGETVSPINCDPKSPLPNRLGSSYDVKLIVVGDRTQLGDLDFLDADIHSGLCLFSELELDLKIEEETIEDYLGYLRWLCEQYNLPSLTCSAIQSLMTAGARYTEDQYYAPLCLMWHRALLEEARLESEEPLIDAEHIEIALDKRYLRESYLPERALDDILDGQVIIETQGEQVGQVNGLTVIEVTGHPMPYGEPARISCVIHFGDGDIADVERKVELGGNLHAKGMMIMQAFVSSALNLDGSLPFSASIVFEQSYSEVDGDSASLAELCSLVSALSEYPIDQQIAVTGAVDQFGRVQAVGGLNEKIEGFYRVCCHQGLTGEQGVILPSSNLKHLALHKSVVESIKNGEFNIWPVSTVDEAIPLLMGKPFRGEDEGHHHHHH”: the “soluble on expression in E. coli” value was “not soluble”.
As to “GMPTRVIEDKGDMTPSFGIDDRIFLGEGLFETIRVNSSKPSFAYMHWERLGNSARQLGIPFEISFDDWFEHLIQKIQKDNLYHGGIKAILSGGPASRGLAERGQVSQLIFQTFNYSIQKHPVRLISINWLRDKANPLYQLKSVNYLEAIIAQRQAIAVGADDALFFNTENHVTETTCANLFLIENNILYTPRVEDGILPGITRARLISHCQQHKMSVQEISLTKKRIEDADAVFLTNSLQGIRRVLSLDNIIFEVNHPIIDKLIFLLNQDES”, the “soluble on expression in E. coli” value is on record as “soluble”.
For the sequence “MAANKPKGQNSLALHKVIMVGSGGVGKSALTLQFMYDEFVEDYEPTKADSYRKKVVLDGEEVQIDILDTAGQEDYAAIRDNYFRSGEGFLCVFSITEMESFAATADFREQILRVKEDENVPFLLVGNKSDLEDKRQVSVEEAKNRAEQWNVNYVETSAKTRANVDKVFFDLMREIRARKMEDSKEKNGKKKRKSLAKRIRERCCIL”, the “soluble on expression in E. coli” value is recorded as “soluble”.
As to “MVFSKKPITKYITWAIVTSQIPLPVIADSDNEIQSWIAGTASSISPHLQEGTLEDYAKGKIKALPGQAANHLVNEGIKSAFPEIIFRGGVNLEDGAKYRSSEFDMFIPVQETTSSLLFGQLGFRDHDNSSFDGRTYVNVGMGYRQEVNGWLLGVNTFLDADIRYSHLRGGIGGEVYKDSLAFSGNYYFPLTGWKMSAAHELHDERPAYGFDLRTKGTLPDFPWFSGELTYEQYYGDKVDLLGNGTLSRNPRAAGAALVWNPVPLLEVRAGYRDAGNGGSQAEGGLRVNYSFGTPLHEQLDYRNVGAPSNTTNRRAFVDRNYDIVMAYREQASKIRITAMPVSGLSGTLVTLMATVDSRYPVEKVEWSGDAELLAGLQLQGSLGSGLILPQLPLTATDGQEYSLYLTVTDSRGTRVTSERIPVRVTQDETSFRSWINVINDDVQVEDGNFVINTPLPAGEEGKVIEWHYVRERSEEEWASLKPRHIKYQSDTPGLAFKALGGTERDGHWVERVLVTHIGDDARSLKLHIEASGPDDKHPVKGTVLLQAQSDSIAQKVTSVEVLFTPGTEEANGSVTAPVVGTEMRARTLCVNNTDCTDAFNYQWEISDEMKSWQSVPGATKATWLLPYSLNGESLQNKYIRVRIISDKGNAKGNTATSDAN”, the “soluble on expression in E. coli” value was “not soluble”.
For the sequence “MSLKNNIYGNVPCFLNSKNLNQTNTLDTDVIVYGAPFEGESTWGDYTGVELGPKQIRVCSARYSQYLPELNHIDISEHLTMGDVGDVPFVAHDNKQSYDNISDFAKKLWDSGKFLVGFGGEHGVTYPILKALTETGKKVGIIHLDAHYDNMPDYEGEPYARNTPFMRLYETDGIRNESIIHTGIHGPRNKPETGRFAQEAGAVTLTINDIRAAKDLKTYAHEIYAQASKDVDVVYLTICSDVLDFAFNPGGPVDGNGLSSYELLTMIHEFGKLGLGGMDYVEVYPMMDANQNSAHFVSTAVLYVLAGHVAYLNQTEGHHHHHH”, the “soluble on expression in E. coli” value is on record as “soluble”.
Turning to “MHHHHHHMKEVVSSVYKEILVKLGLTEDRIETLEMKGGIIEDEFDGIRYVRFKDSAGKLRRGTVVIDEEYVIPGFPHIKRIINLRSGIRRIFKRGEFYVEEKVDGYNVRVVMYKGKMLGITRGGFICPFTTERIPDFVPQEFFKDNPNLILVGEMAGPESPYLVEGPPYVKEDIQFFLFDVQEIKTGRSLPVEERLKIAEEYGINHVEVFGKYTKDDVDELYQLIERLSKEGREGIIMKSPDMKKIVKYVTPYANINDIKIGARVFYELPPGYFTSRISRLAFYLAEKRIKGEEFERVAKELGSALLQPFVESIFDVEQEEDIHELFKVRVKRIETAYKMVTHFEKLGLKIEIVDIEEIKDGWRITFKRLYPDATNEIRELIGGKAFVD”, the “soluble on expression in E. coli” value was “soluble”.
To “MLSGTRSRSSTKARKGTPRPPALSQSVYCGRRYTGPHTTFFFEITNDEYLLLSVLIFCNPALLQLSENGKLLLTIYRNLYCSALLQHCLLNNQKSGPARFTELLGVYQAIEVHYSDLANYIVLFQLNRPKVNQIVKNCFEAVT” belongs “not soluble”; to “MAHHHHHHMGACGSKGSTSDKGLASDKDGKNAKDRKEAWERIRQAIPREKTAEAKQRRIELFKKFDKNETGKLCYDEVHSGCLEVLKLDEFTPRVRDITKRAFDKARVLGSKLENKGSEDFVEFLEFRLMLCYIYDFFELTVMFDEIDASGNMLVDEEELKRAVPKLEAWGAKVEDPAALFKEIDKNGTGSVTFDEFAAWASAVKLDADGDPDNVPERA”, “soluble”.
To “MSLKIGIVGPGAIGLLYTFYLQKSNQDVTLFTRTAKQAEELNETGVTCIRDGRCETVYPPVLPIESMVAQNLDYIFISVKQYHIDDVLPFVEGASSLIFLQNGMSHLQKMLKIGSENIAVGIVEHGAKKEGGHIVHHTGIGVTKFGVVCGQSIHFKKIFRYFPVTYFPVQIETDWEEIMHKKLVVNVCINPLTALLGVKNGELITNRFFYQMMEQVFQEVAFLIRGEKEMVWQMVRNVCEGTSRNTSSMLADVRANRQTEINAIVGYVLEEAKKQQLPVPTLQFLFDAIKGLETREGHHHHHH” belongs “not soluble”; to “MSLKAKIKELENNLERLRSDLQSKIQEIESIRSCKDSQLKWAQNTIDDTEMKMKSLLTELSNKETTIEKLSSEIENLDKELRKTKFQYKFLDQNSDASTLEPTLRKELEQIQVQLKDANSQIQAYEEIISSNENALIELKNELAKTKENYDAKIELEKKEKWAREEDLSRLRGELGEIRALQPKLKEGALHFVQQSEKLRNEVERIQKMIEKIEKMSTIVQLCKKKEMSQYQSTMKENKDLSELVIRLEKDAADCQAELTKTKSSLYSAQDLLDKHERKWMEEKADYERELISNIEQTESLREGHHHHHH”, “soluble”.
